Reference: patent US20210324074A1 (US Dept. of Health and Human Services, published 2021)

Assays:
[1] = target: T1, CD22 ECD-Fc fusion protein (UniProt P20273 20-687, limits assumed); assay: SPR, BIAcore X100; CD22 ECD-Fc amine-coupled to the chip, scFv as analyte (0.32-200 nM per paragraph 213), 1:1 fit; legend paragraph 27 says this kd is below what the instrument can measure (1.0E-5 1/s)
T1 construct: extracellular domain; also called CD22-Fc; not shown: Fc part
Protocol: (§1) FIGS. 13A-13F: (FIG. 13A) BIAcore analysis was used to evaluate association and dissociation curves of various scFvs. […] (FIGS. 13C-13F) Mice were injected with CD22^lo or Nalm6 leukemia on Day 0. […] Bone marrow cells were stained for flow cytometry and analyzed on Fortessa flow machine. Statistics were calculated using unpaired t-test (** p<0.0021).
(§2) Purified CD22 ECD-Fc fusion protein was diluted in 10 mM acetic acid buffer, pH 5.0, immobilized on a CMS biosensor chip for 1400 RU using an amine coupling kit. The running buffer was HBS-EP (10 mM HEPES, pH 7.4, 150 mM NaCl, 3 mM EDTA, 0.05% surfactant P20). The scFvs diluted in running buffer were allowed to flow through the cells at concentrations 0.32, 1.6, 8, 40 and 200 nM. After a 10-minute of dissociation, the chip was regenerated with 10 mM acetic acid, pH 4.0, 0.5 M NaCl. The data were fitted with 1:1 binding model and the dissociation rate constant was estimated with the BIAevaluation software.

[2] = target: T1, CD22 ECD-Fc fusion protein; assay: SPR, BIAcore X100; CD22 ECD-Fc amine-coupled to the chip, scFv as analyte (0.32-200 nM per paragraph 213), 1:1 fit; calculated from a kd that legend paragraph 27 says is below the instrument's limit
Protocol: as §1, §2

[3] = target: T1, CD22 ECD-Fc fusion protein; assay: SPR, BIAcore X100, CD22 ECD-Fc immobilized, scFv in flow
Protocol: as §1, §2

[4] = target: T1, CD22 ECD-Fc fusion protein; assay: SPR, BIAcore X100, CD22 ECD-Fc immobilized, scFv in flow, 1:1 model. The fitted value is below the instrument's limit.; fitted kd, below the instrument's limit
Protocol: as §1, §2

[5] = target: T1, CD22 ECD-Fc fusion protein; assay: SPR, BIAcore X100; CD22 ECD-Fc amine-coupled to the chip, scFv as analyte (0.32-200 nM per paragraph 213), 1:1 fit
Protocol: as §1, §2

[6] = target: T1, CD22 ECD-Fc fusion protein; assay: SPR, BIAcore X100, CD22 ECD-Fc immobilized, scFv in flow. The association rate appears only as the divisor in the KD calculation, and its unit is not printed.
Protocol: as §1, §2

CD22 = target: T2, CD22 (UniProt P20273 20-687, limits assumed); assay: not stated (overview statement); overview statement, assay not stated
T2 construct: also called B cell antigen CD22

B1: m971-L7 scFv (scFv)
scFv: QVQLQQSGPGMVKPSQTLSLTCAISGDSVSSNSVAWNWIRQSPSRGLEWLGRTYYRSTWYNDYAVSMKSRITINPDTNKNQFSLQLNSVTPEDTAVYYCAREVTGDLEDAFDIWGQGTMVTVSSGGGGSGGGGSGGGGSDIQMIQSPSSLSASVGDRVTITCRASQTIWSYLNWYRQRPGEAPNLLIYAASSLQSGVPSRFSGRGSGTDFTLTISSLQAEDFATYYCQQSYSIPQTFGQGTKLEIK
notes: Soluble scFv run over immobilized CD22 ECD-Fc on a BIAcore X100; also called matured variant L7
koff [1]: 1.16e-06 s⁻¹ | Kd [2]: 0.00206 nM | Kd [3]: < 0.018 nM | fold higher affinity than original scFv m971 [3]: > 1000 fold | koff [4]: < 1e-05 s⁻¹ | kon [5]: 563000 M⁻¹ s⁻¹ | kon [6]: 560000 M⁻¹ s⁻¹

B2: affinity matured human monoclonal antibody m971-L7 (antibody, V domains shown)
VH: QVQLQQSGPGMVKPSQTLSLTCAISGDSVSSNSVAWNWIRQSPSRGLEWLGRTYYRSTWYNDYAVSMKSRITINPDTNKNQFSLQLNSVTPEDTAVYYCAREVTGDLEDAFDIWGQGTMVTVSS
VL: DIQMIQSPSSLSASVGDRVTITCRASQTIWSYLNWYRQRPGEAPNLLIYAASSLQSGVPSRFSGRGSGTDFTLTISSLQAEDFATYYCQQSYSIPQTFGQGTKLEIK
notes: Named as 'antibody' in the overview
Kd (CD22): < 0.05 nM
